Assay results from article PMC8050316, “Tissue plasminogen activator is a ligand of cation-independent mannose 6-phosphate receptor and consists of glycoforms that contain mannose 6-phosphate” (Scientific Reports, 2021).

How the values were obtained:
[1] = target: bovine cation-independent mannose 6-phosphate receptor domains 1-15 (entire extracellular region) (bovine) (UniProt P08169); assay: SPR; bovine CI-MPR d1-15 amine coupled to a CM5 chip, tPA injected at various concentrations, 25 °C, response at equilibrium fit with a one site specific binding model
Sequence of bovine cation-independent mannose 6-phosphate receptor domains 1-15 (entire extracellular region) (bovine) (P08169 47-2296): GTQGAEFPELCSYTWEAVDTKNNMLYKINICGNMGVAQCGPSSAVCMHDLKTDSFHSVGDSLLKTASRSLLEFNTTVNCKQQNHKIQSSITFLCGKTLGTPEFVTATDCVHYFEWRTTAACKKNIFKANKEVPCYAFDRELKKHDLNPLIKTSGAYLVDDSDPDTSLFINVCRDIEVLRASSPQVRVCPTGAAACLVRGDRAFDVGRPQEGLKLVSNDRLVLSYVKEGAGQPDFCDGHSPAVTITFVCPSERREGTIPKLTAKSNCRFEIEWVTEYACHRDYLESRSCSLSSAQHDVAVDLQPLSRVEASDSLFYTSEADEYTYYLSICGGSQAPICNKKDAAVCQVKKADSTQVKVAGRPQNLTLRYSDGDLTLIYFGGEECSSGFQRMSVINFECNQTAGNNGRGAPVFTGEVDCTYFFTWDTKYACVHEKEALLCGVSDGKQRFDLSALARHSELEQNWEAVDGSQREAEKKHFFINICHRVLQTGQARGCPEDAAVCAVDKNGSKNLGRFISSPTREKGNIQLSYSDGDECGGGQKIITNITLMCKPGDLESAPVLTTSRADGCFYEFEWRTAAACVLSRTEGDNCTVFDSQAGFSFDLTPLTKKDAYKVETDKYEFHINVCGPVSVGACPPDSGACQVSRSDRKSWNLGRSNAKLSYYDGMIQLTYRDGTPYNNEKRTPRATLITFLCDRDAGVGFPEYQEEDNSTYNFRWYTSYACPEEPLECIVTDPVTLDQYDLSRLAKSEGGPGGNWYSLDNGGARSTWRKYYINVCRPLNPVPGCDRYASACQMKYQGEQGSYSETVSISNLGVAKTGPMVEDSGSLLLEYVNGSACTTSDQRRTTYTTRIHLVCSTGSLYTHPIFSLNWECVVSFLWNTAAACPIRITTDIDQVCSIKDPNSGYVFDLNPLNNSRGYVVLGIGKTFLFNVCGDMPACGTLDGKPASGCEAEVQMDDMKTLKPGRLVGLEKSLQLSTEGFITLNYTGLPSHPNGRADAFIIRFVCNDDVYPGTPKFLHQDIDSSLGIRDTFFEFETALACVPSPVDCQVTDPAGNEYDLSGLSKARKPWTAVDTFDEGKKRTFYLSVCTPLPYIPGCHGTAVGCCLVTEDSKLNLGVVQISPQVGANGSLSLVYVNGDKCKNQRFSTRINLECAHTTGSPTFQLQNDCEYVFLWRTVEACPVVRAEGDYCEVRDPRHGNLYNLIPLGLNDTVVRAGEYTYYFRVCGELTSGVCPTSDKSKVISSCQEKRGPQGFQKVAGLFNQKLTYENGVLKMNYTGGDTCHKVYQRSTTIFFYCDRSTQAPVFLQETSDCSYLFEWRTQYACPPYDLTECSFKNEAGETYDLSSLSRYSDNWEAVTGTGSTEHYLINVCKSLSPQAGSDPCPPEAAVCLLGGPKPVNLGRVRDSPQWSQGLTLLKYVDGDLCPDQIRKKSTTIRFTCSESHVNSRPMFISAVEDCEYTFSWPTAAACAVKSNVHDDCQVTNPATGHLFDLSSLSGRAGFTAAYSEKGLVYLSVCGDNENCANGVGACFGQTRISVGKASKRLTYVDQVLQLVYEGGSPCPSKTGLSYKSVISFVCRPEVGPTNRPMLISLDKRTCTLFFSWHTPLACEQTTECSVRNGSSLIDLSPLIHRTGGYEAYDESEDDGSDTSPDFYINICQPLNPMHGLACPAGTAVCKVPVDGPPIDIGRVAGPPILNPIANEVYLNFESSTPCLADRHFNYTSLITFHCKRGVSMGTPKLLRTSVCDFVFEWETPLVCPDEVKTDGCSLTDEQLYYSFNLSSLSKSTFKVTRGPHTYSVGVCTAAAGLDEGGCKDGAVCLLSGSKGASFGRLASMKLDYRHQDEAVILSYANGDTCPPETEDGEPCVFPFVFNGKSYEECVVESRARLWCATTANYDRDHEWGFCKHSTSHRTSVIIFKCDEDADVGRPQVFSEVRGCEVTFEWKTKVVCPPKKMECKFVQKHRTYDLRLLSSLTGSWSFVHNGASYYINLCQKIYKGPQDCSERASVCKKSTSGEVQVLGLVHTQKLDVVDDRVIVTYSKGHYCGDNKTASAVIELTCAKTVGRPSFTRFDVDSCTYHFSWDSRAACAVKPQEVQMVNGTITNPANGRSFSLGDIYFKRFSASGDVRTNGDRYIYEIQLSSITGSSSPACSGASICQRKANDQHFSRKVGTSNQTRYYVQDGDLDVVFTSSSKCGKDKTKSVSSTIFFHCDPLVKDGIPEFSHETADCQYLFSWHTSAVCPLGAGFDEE

[2] = target: human cation-independent mannose 6-phosphate receptor domains 1-5 (human) (UniProt P11717); assay: SPR; C-terminally biotinylated human CI-MPR d1-5 on a streptavidin chip; tPA injected at various concentrations, one site specific binding fit; tPA at 120 nM with 5 mM M6P or 5 mM G6P
Sequence of human cation-independent mannose 6-phosphate receptor domains 1-5 (human) (P11717 36-763): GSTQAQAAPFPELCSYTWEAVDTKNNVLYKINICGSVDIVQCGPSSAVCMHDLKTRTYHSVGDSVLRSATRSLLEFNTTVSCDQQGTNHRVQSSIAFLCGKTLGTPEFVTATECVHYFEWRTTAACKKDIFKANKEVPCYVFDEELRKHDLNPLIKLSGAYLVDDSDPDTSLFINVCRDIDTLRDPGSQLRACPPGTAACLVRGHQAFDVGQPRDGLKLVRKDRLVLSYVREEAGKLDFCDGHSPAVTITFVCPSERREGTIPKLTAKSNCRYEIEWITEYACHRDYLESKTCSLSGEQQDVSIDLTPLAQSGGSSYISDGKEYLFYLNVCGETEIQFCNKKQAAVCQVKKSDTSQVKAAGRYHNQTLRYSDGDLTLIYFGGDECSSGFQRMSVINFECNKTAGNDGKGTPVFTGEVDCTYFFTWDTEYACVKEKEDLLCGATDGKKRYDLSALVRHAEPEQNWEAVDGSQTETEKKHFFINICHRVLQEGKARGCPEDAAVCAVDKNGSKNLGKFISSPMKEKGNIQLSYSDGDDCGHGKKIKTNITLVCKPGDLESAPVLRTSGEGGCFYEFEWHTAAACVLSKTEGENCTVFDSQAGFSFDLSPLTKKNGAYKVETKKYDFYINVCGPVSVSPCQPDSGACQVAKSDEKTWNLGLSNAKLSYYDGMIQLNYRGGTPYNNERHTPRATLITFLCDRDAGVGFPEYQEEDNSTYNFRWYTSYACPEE

[3] = target: human cation-independent mannose 6-phosphate receptor domains 1-15 (entire extracellular region) (human) (UniProt P11717); assay: SPR; biotinylated human CI-MPR d1-15 on a streptavidin-coupled CM5 chip, tPA injected at various concentrations, 25 °C, 40 µl/min for 2 min, response at equilibrium fit with a one site specific binding model
[4] = target: bovine cation-independent mannose 6-phosphate receptor domains 1-15 (entire extracellular region) (bovine) (UniProt P08169); assay: SPR; bovine CI-MPR d1-15 amine coupled; mock- or phosphatase-treated proteins injected in 10 mM HEPES, 150 mM sodium acetate, 5 mM β-glycerophosphate, 0.005% polysorbate-20, pH 7.4; tPA at 80 nM with 5 mM M6P, 5 mM G6P or no inhibitor
[5] = target: T1, bovine cation-independent mannose 6-phosphate receptor domains 1-15 (entire extracellular region) (bovine, UniProt P08169 47-2296); assay: SPR; recombinant tPA, native tPA or β-glucuronidase amine coupled; bovine CI-MPR d1-15 at 20 nM injected after preincubation with M6P, G6P or αMeMan (0.1, 1.0, 5.0 mM); conditions: both partners purified
T1 construct: cation-independent mannose 6-phosphate receptor (CI-MPR), bovine, domains 1-15, amino acids 47-2296; also called bovine CI-MPR d1-15; CI-MPR d1-15; source: Sf9, secreted, purified (Ni-NTA, Sephacryl S-300)
T1 sequence (P08169 47-2296): as the sequence (P08169 47-2296) above

native tissue plasminogen activator isolated from a human melanoma cell line (enzyme)
Kd [1]: 214 nM | Kd [2]: 155 nM | percent decrease in response at equilibrium with 5 mM G6P [2]: 21% | percent decrease in response at equilibrium with 5 mM M6P [2]: 39% | Kd [3]: 81 nM

phosphatase-treated recombinant tissue plasminogen activator (enzyme)
percent decrease in response with 5 mM G6P [4]: 12% | percent decrease in response with 5 mM M6P [4]: 13%

recombinant human tissue plasminogen activator (Cathflo Activase, alteplase) (enzyme)
Kd [1]: 108 nM | Kd [2]: 134 nM | percent decrease in response at equilibrium with 5 mM G6P [2]: 20% | percent decrease in response at equilibrium with 5 mM M6P [2]: 40% | Kd [3]: 23 nM | percent decrease in average response with 5 mM G6P [4]: 26% | percent decrease in average response with 5 mM M6P [4]: 55%

B1: human β-glucuronidase (enzyme, UniProt P08236 23-651, looked up)
chain: LQGGMLYPQESPSRECKELDGLWSFRADFSDNRRRGFEEQWYRRPLWESGPTVDMPVPSSFNDISQDWRLRHFVGWVWYEREVILPERWTQDLRTRVVLRIGSAHSYAIVWVNGVDTLEHEGGYLPFEADISNLVQVGPLPSRLRITIAINNTLTPTTLPPGTIQYLTDTSKYPKGYFVQNTYFDFFNYAGLQRSVLLYTTPTTYIDDITVTTSVEQDSGLVNYQISVKGSNLFKLEVRLLDAENKVVANGTGTQGQLKVPGVSLWWPYLMHERPAYLYSLEVQLTAQTSLGPVSDFYTLPVGIRTVAVTKSQFLINGKPFYFHGVNKHEDADIRGKGFDWPLLVKDFNLLRWLGANAFRTSHYPYAEEVMQMCDRYGIVVIDECPGVGLALPQFFNNVSLHHHMQVMEEVVRRDKNHPAVVMWSVANEPASHLESAGYYLKMVIAHTKSLDPSRPVTFVSNSNYAADKGAPYVDVICLNSYYSWYHDYGHLELIQLQLATQFENWYKKYQKPIIQSEYGAETIAGFHQDPPLMFTEEYQKSLLEQYHLGLDQKRRKYVVGELIWNFADFMTEQSPTRVLGNKKGIFTRQRQPKSAAFLLRERYWKIANETRYPHSVAKSQCLENSLFT
modifications: M6P on its N-linked glycans
notes: β-glucuronidase, human, lysosomal enzyme; also called mock-treated β-glucuronidase
binding result [5]: binds
